Test [1] concerns the target T1, human FcγRI (human, UniProt P12314 16-288, limits assumed). As to the kind of experiment: summary of Example 2.
The target in test [2] is T2, recombinant soluble human iTCR (Hu-siTCR) (human).
T2 construct: Bought recombinant soluble heterodimer, coated on nickel (HIS-Select) plates; also called recombinant TCR heterodimer (Precision Antibody); purified TCR heterodimer
As to the kind of experiment: SPR (BIAcore).

Test [3] has as its target T2, recombinant soluble human iTCR …. Kind of test: competition ELISA on plate-bound recombinant TCR heterodimer; competitor biotinylated chimeric 6B11 IgG1; IC50 of test divided by IC50 of reference.
Test [4] has the same target. As to the kind of experiment: ELISA using Hu-siTCR.
The target of test [5] is T1, human FcγRI. Kind of test: ELISA / BIAcore, not said which.
The target of a further test is complement component C1q (human, UniProt P02745 23-245; P02746 28-253; P02747 29-245). Kind of test: ELISA.
For test [6], the target named is T1, human FcγRI. As to the kind of experiment: ELISA.
For another test, the target named is T3, FcγRIII (human).
T3 construct: also called Fc-gamma-RIII
Kind of test: in vitro binding experiments, afucosylated against fucosylated IgG1; reference not named.

Some results are limits rather than exact numbers.

T1 sequence (P12314 16-288 limits assumed): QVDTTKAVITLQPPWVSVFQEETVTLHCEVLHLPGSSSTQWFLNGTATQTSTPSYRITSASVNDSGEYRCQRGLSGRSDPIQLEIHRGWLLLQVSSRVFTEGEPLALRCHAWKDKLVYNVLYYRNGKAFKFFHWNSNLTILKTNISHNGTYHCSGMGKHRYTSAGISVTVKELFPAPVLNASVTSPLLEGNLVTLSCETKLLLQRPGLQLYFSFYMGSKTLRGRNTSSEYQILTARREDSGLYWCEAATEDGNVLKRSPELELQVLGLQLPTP
T3 sequence (P08637 17-208): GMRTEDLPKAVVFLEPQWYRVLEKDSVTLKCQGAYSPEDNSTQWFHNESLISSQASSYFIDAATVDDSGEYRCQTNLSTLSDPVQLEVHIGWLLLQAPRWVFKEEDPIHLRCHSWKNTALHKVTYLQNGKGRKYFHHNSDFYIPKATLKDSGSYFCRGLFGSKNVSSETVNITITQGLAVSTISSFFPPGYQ
Sequence of complement component C1q (P02745 23-245 limits assumed, chain 1 of 3): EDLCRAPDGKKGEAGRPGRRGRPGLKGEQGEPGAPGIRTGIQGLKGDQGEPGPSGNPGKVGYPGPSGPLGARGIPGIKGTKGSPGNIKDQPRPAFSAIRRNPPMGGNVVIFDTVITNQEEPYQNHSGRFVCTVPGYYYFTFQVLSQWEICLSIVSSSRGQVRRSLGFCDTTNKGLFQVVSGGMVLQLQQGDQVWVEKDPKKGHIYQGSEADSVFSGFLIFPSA
Sequence of complement component C1q (P02746 28-253 limits assumed, chain 2 of 3): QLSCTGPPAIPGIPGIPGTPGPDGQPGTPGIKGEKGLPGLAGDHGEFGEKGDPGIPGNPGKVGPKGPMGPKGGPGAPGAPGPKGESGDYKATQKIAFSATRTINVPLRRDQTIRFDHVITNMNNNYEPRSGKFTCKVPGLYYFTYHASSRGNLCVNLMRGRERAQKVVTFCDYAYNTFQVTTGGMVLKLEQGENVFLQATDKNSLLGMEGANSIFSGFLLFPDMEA
Sequence of complement component C1q (P02747 29-245 limits assumed, chain 3 of 3): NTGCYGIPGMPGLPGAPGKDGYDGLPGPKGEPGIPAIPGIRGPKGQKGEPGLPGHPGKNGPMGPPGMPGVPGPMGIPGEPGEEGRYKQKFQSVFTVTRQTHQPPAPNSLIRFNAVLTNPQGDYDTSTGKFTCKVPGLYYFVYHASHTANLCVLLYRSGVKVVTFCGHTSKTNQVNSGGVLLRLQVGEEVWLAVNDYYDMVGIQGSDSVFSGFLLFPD

B1: NKTT120 (antibody, human IgG1, kappa)
heavy: not shown
light: DIQMTQSPSSLSASVGDRVTITCKASQDVSTAVAWYQQKPGQAPRLLIYWASTRHTGVPSRFSGSGSGTDFTLTISSLQPEDFALYYCQQHYSTPWTFGQGTKLEIKRTVAAPSVFIFPPSDEQLKSGTASVVCLLNNFYPREAKVQWKVDNALQSGNSQESVTEQDSKDSTYSLSSTLTLSKADYEKHKVYACEVTHQGLSSPVTKSFNRGEC
notes: Humanized IgG1 with VH4 and VK4; also called VH 4/VK4; VH 4/Vκ4
With B1, in the test with human FcγRI [1], the binding result is listed as “binds”. Also, the equilibrium dissociation constant (Kd) in test [2] was around 60 nM. Also, the “Relative IC50” value in test [3] is 0.212 ratio to chimeric 6B11 IgG1. In addition, the IC50 in test [4] is 0.2 µg/mL.

B2: NKTT320 (antibody, human IgG4 S228P, kappa)
heavy: not shown
light: DIQMTQSPSSLSASVGDRVTITCKASQDVSTAVAWYQQKPGQAPRLLIYWASTRHTGVPSRFSGSGSGTDFTLTISSLQPEDFALYYCQQHYSTPWTFGQGTKLEIKRTVAAPSVFIFPPSDEQLKSGTASVVCLLNNFYPREAKVQWKVDNALQSGNSQESVTEQDSKDSTYSLSSTLTLSKADYEKHKVYACEVTHQGLSSPVTKSFNRGEC
notes: also called modified IgG4 anti-iNKT mAb
On to B2, for which the binding result with human FcγRI [5] is recorded as “no binding”.

B3: NKTT103 (6B11 chimeric IgG1 control antibody) (antibody)
heavy: not shown
light: DIVMTQSHKFMSTSVGDRVSITCKASQDVSTAVAWYQQKPGQSPKLLIYWASTRHTGVPDRFTGSGSGTDYTLTISSVQAEDLALYYCQQHYSTPWTFGGGTKLEIKRTVAAPSVFIFPPSDEQLKSGTASVVCLLNNFYPREAKVQWKVDNALQSGNSQESVTEQDSKDSTYSLSSTLTLSKADYEKHKVYACEVTHQGLSSPVTKSFNRGEC
notes: Murine 6B11 V regions on human IgG1; also called chimeric 6B11 IgG1; chimeric 6B11 mAb
On to B3, for which the binding result with complement component C1q and with human FcγRI [6] was “binds” throughout. For the same molecule, the half-maximal inhibitory concentration (IC50) in test [4] was 1 µg/mL.

B4: NKTT219 (antibody, human IgG1)
heavy: not shown
VL: DIVMTQSPSSLSASVGDRVTITCKASQDVSTAVAWYQQKPGQAPRLLIYWASTRHTGVPSRFSGSGSGTDFTLTISSLQPEDFALYYCQQHYSTPWTFGQGTKLEIK
modifications: non-fucosylated (afucosylated) carbohydrate in the Fc portion
notes: also called ADCC-enhanced humanized IgG1
B4: in the test with FcγRIII, the “fold improvement of binding” value is at most 100 fold.

The values are drawn from patent US20130136735A1 (NKT THERAPEUTICS, published 2013).
